According to the RNAGym collection of RNA variant scans (doi:10.1073/pnas.2313332121):
Variants at the floor of the assay were thinned out.

B1: TPR 5TU (parent)
chain: GGAUCUUCUCGAUCUAACAAAAAAGACAAAUCUGCCACAAAGCUUGAGAGCAUCUUCGGAUGCAGAGGCGGCAGCCUUCGGUGGCGCGAUAGCGCCAACGUUCUCAACUAUGACACGCAAAACGCGUGCUCCGUUGAAUGGAGUUUAUCAUG

Variants of: B1
Experiment: polymerase ribozyme fitness, log enrichment relative to wild type (log ratio); higher = more active; in vitro selection for triplet polymerase activity
Procedure, shortened: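 Mutant libraries for each subunit of a heterodimeric triplet polymerase ribozyme were made by PCR and then transcribed. Each library underwent one round of in vitro selection in triplicate: annealing with a biotinylated primer, the partner subunit and triplets, frozen incubation at −7 °C, gel excision of extended constructs, streptavidin-bead capture and RT-PCR. Input and output libraries were Illumina-sequenced, and only genotypes with ≥10 input reads and ≥1 read per output were kept. Fitness is the logarithm, base 2, of genotype enrichment over wild-type enrichment, computed from inverse-variance-weighted replicate averages.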

Variant | polymerase ribozyme fitness (log ratio)
GGAUCUUCUCGAUCUAACAAAAAAGACAAAUCUGCCACAAAGCUUGAGAGCGUCUUCGGAUGCAGAGGCGGCAGCCUUCGGUAGCGCGAUAGCGCCAACGUUCUCAACUAUGACACGCAAGACGCGUGCUCCGUUGAAUGGAGUUUAUCAUG | -0.142
GGAUCUUCUCGAUCUAACAAAAAAGACAAAUCUGCCACAAAGCUUGAGAGCAACUUCGGAUGCAGAGGCGGCAGUCUUCGGUGCCGCGAUAGCGCCAACGUUCUCAACUAUGACACGCAAAACGCGUGCUCCGUUGAAUGGAGUUUAUCAUG | -2.82
GGAUCUUCUCGAUCUAACAAAAAAGACAAAUCUGCCACAAAGCUUGAGAGCAUCAUCGGAUGCAGAGGCGGCAGCCUUUGGUAGCGCGAUAGAGCCCACGUUCUCAACUAUGACACGCAAAACGCGUGCUCCGUUGAUUGGAGUUUAUCAUG | ≤ -4.2
GGAUCUUCUCGAUCUAAUAAAAAAGACAAAUCUGCCACAAAGCUUGAGAGCAUCUUCGGAUACAGAAGCGGCAGCCGUCGGUGGCGAGAUAGCGCCAACGCUCUCAACUAUGACACGCAAAAUGCGUGCUCCGUUAAAUGGAGUUUAUCAUG | ≤ -4.2
GGAUCUUCUCGAUCUAACAAAAAAGACAAAUCUGCCACAAAGCUUGAGAGCAUCUACGGAUGCAGAGGCGGCAGCCUUCGGUGGCGCGAUAGUGCCAACGUUCUCAACUAUGACACGCAAAACGCGCGCUCCGUUGAAUGGAGUUUAUCAUG | -2.73
GGAUCUUUUCGAUCUAACAAAAAAGACAAAUCUGCCACAAAGCUUGAGAGCAUCUUAGGAUGCAGAGGCGGCAGCCUUCGGUGGCGCGAUAGCGCCAACGUUCUCAACUAUGACACGCAAAACGCGUGCUCCGUUGAAUGGAGUUUAUCAUG | -2.69
GGAUCUUCUCGAUCUAUCAAAAAAGACAAAUCUGCCACAAAGCUUGAGAGCAUCUUCGGAUGCAGAGGCGGCAGCCUUCGGUGGCGCGAUAGCACCAACGUUCUCAACUAUGACACGCAAAACGCGUGCUCCGUUGAAUGGAGUUUAUCAUG | -1.24
GGAUCUUCUCGAUCUAACAAAAAAGACAAAUCUGCCACAAAGCUUGAGAGCAUCAUCGGAUGCGGAGGCGGCAGCCUUCGGUGACGCGAUAGGGCCAACGUUCUCAACUAUGACACGCAAAACGCGUGCUCCGUUGGAUGGUGUUUAUCAUG | ≤ -4.2
GGAUCUUCUCGAUCUAACAAAUAUGACAAAUCUGCCACAAAGCAUGAGAGCAUCUUCGGAUGCAGAGGCGGCAGCCUUCGGUGGCGCGAUAGAGCUAACGUUCUCAACUAUGACACGUAAAACGCGUGCUCCGUUGAAUGGAGUUUAUCAUG | ≤ -4.2
GGAUCUUCUCGAUCUAACAAAAAAGACAAAUCUGCCACAAAGCUUGAGAGCAUCUUCGGAUGCAGAGGCGGCAGCCUUCGGUGGCGAGAUGGCGCCAACGUUUUCAACUAUGACACGCAAAACGCGUGCUCCGUCGAAUGGAGUUUAUCAUG | ≤ -4.2
GGAUCUUCUCGAUCUAACAAAAAAGACAAAUCUGCCACAAAGCUUGAGAGCAUGUUCGGAUGCAGAGGCGGCAGCAUUCGGUGGGGCGAUAGCGCCAACGUUCUCAACUAUGACACGCAAAACGCGUGCUCCGUUGAAUGGAGUUUAUCAUG | -2.78
GGAUCUUCUCGAUCUAACAAUACAGACAAAUCUGCCAAAAAGCUUGAGAGCAUCUUCGGAUGCAGAGGCGGCAGCCUUCGGUGGCGCGAUAGCGCCAAGGUUCUCAACUAUGACACGCAAAACGCGUGCUCCGUUGAAUGGCGUUUAUCAUG | ≤ -4.2
GGAUCUUCUCGAUCUAACAAAAAAGACAAAUCUGCCACAAAGCUUGAGAGCAUCUUCGGAUGCAGAGGCGGCAGCCUUCGGUGGCGCGAUAGUGCCAACGUUCUCAACUAUGACACGCAAAACGCGUGCUCCUUUGAAUGGAGUUUAUCAUG | -3.7
GGAUCUUCUCGAUCUAACAAAAAAGACAAAUCUGCCACAAAGCUUGAUAGCCUCUUCGGAUGCAGAGGCGGCAGCCUUCGGUGGCGCGAUAGUGCCAACGUUCUCAACUAUGACACGCAAAACGCGUGCUCCGUUGAAUGGAGUUUAUCAUG | -3.41
GGAUCUUCUCGAUCUAACAAAAAAGACAAAUCUGCCACAAAGCUUGAGAGCAUCUUCGGAUGCAGAGGCGGCAGCCUUCGGUGGCGCGAUAGCGCCAACGUUCUCAACUAUGACACGCAAAACGCGUGCUCCGUUGAAUGGAUUUUAUCAUA | -3.69
GGAUCUUCUCGAUCUAACUCAAAAGACAAAUCUGCCACAAAGCUUGAGAGCAUCUUCGGAUGCAGAGGCGGCGGCCUUCGGUGGCGCGAUAUCGCCAACGUUCUCAACUAUGACAAGCAAAACGCGUGCUCCGUUGAAUGGAGUUUAUCAUG | -0.142
GGAUCUUCUCGAUGUAACAAAAAAGACAAAUCUGCCACUAAGCUUGAGAGCAUCUUGGGAUGCAGAGGCGGCAGCCUUCGGUGGCGCGAUAGCGCCAACGUUCUCAACUAUGACACGCAAAACGCGUGCUCCGUUGAAUGGAGUUUAUCAUG | -4.06
GGAUCUUCUCGAUCUAACAAAAAAGACAAAUCUGCCACAAAGCUUGAGAGCAUCUACGGAUGCAGAGGCGGCAGCCUUCGGUGGCGCGAUAGCGCCAACGUUCUCAACUAUGACACGCAAAACCCGUGCUCCGUUGAAUGGAGUUUAUCAUG | -1.68
GGAUCUUCUCGAUCUAACAAAAAAGACAAAUCUGCCACAAAUCUUGAGAGCAUCUUAGGAUGCAGAGGCGGCAGCCUUCGGUGGCGCGAUAGCGCCAACGUUCUCAACUAUGACACGCAAAACGCGUGCUCCGUUGAAUGGAGUUUAUCAUG | ≤ -4.2

Variant | polymerase ribozyme fitness (log ratio)
GGAUCUUCUCGAUCUAACAAAAAAGACAAAUCUGCCACAAAGCUUGAGAGCAACUUCGGAUGCAGAGGCGGCAGCCUUCGAUGGCGCGAUAGCGCCAAUGUUCUCAACUAUGACACGCAAAACGCGUGCUCCGUUGAAUGGAGUUUAUCAUG | -2.36
GGAUCUUCUCGAUUUAACAAAAAAGACAAAUCUGCCACCAAGCUUGAGAGCAUCUUCGGAUGCAGAGGCGCCAGCCUUCGGUGGUGCGAUAGCGCCGACGUUCUCAACUAUGACACGCAAAACGCGUGCUCCGUUGAAUGGAGUUUAUCAUG | ≤ -4.2
GGAUCUUCUCGAUCUAACAAAAAAGACAAAUCUGCCUCAAAGCUUGAGAGCAUCUUCGGAUGCAGAGGCGGCAGCCUUUGGUGGCGCGAUAGCGCCAACGUUCUCAACUAUGACAAGCAAAACGCGUGCUCCGUUGAAUGGAGUUUAUCAUG | -4.15
GGAUCUUCUGGAGCUCACAAAAAAGACAAAUCUGCCACAAAGCUUGAGAGCAUCUACGGAUGCAGAGGCGGCAGCCUUCGGUGGCGCGAUACCGCCAACGUUCUAAACUAUGAUACGCAAAACGCGUGCUCCGUUGAAUGGAGUUUAUCAUG | ≤ -4.2
GGAUCUUCUCUAUCUAACAAAAAAGACAAAUCUGCCACAAAACUUGAGAACAUAUUCGGAUGCAGAGGCGGCAGCCUUCGGUGGCGCGAUAGCGUCAACGUUCUCAACUAUGACACGCAAAACACGUGCUCCGUUGAAUGGAGUUUAUCAUG | ≤ -4.2
GGAUCUUCUCGAGCUAACAAAAAAGACAAAUCUGCCACAAAGCUUGAGAGCAUCUUCGGAUGCAGAGGCGGCAGGCUUCGGUGGCGCGAUAGCGCCAACGUUCUCAACUAUGACACGCAAAACGCGUGCUCCGUUGAAUGGAGUUUAUCAUG | ≤ -4.2
GGAUCUUCUCGAUCUAACAAAAAAGAUAAAUCUGCCACAAAGCUUGAGAGCAUCAUCGGAUGCAGAGUCGGCAGCCUUCGGUGGGGCGAUAGCGCCAACGUUCUCAACUAUGACACGCAAAACGCGUGCUCCGUUGAAUGGAGUUUAUCAUG | ≤ -4.2
GGAUCUUCUCGAUCUAACGAAAAAGACAAAUCUGCCACAAAGCUUGAGAGCAUCAUCGGAUGCAGAGGCGGCAGCCUUCGGUAGCGCGAUAGCGCCGACGUUCUCAACUAUGACACGCAAAACACGUGCUCCGUUGAAUGGCGUUUAUCAUG | ≤ -4.2
GGAUCUUCUCGAUCUAACAAAAAAGUCAAAUCUGCCACAAAGCUUGAGAGCAUCUUCGGAUGCAGAGGCGGCAGCCUUCGGUGGUGCGAUAGCGCCAACGUUCUUAACUAUGACACGCAAAACGCGUGCUCCGUUGAAUGGAGUUUAUCAUG | -1.82
GGAUCUUCUCGAUCUAACAAACAAGACAAAUCUGCCACAAAGCUUGAGAGCAUCUUCGGAUGCAGAGGCGGCAGCCUUCGGUGGCGCGAUACCGCCAACGUUCUCAACCAUGACACGCAAAACGCGUGCUCCGUUGAAUGGAGUUUAACAUG | -4.16
GGAUCUUCUCGAUCUAACAAAAAAGACAAAUCUGCCACAAAGCUUGAGAGCAUCUUCGGAUGCAGAGGCGGCAGCCUUCGGUGGCGCGAUAGCGCCAAAGUUCUCAACUAUGACACGCAAAACGCGUGCUCCGUUGAAUGGAGUUGAUCAUG | -1.41
GGAUCUUCUCGAUCUAACAAAAAAGUCAAAUCUGCCACAAAGCUUGAGAGCAUCUUCGGAUGCAGAGGCGGCAGCCUUCGGAGGCGCGAUAGCGCCAACGUUCUCCACUAUGACACGCAAAACGCGUGCUCCGUUGAAUGGAGUUUAUCAUG | -3.93
GGAUCUUCUCGAUCUAACAAAAAAGACCAAUCUGCCACAAAGCUUGCGAGCAUCUUCGGAUCCAGAGGCGGCAGCCUUCGGUGGCGCGAUAGCGCCAACGUUCUCAAGUAUGACACGCAAACCGCGUGCUCCGUUGAAUGGAGUUUAUCAUG | ≤ -4.2
GGAUCUUCUCGAUCUAACAAAAAAGACAAAUCUGCCACAAAGCUUGAGAGCAUCUACGGAUGCAGAGGCGGCAGCCUUCGGUGGCGCGAUAGCGCCAACGUUCUUAACUAUGACACGCAACACGCGUGCUCCUUUGAAUUGAGUUUAUCAUG | ≤ -4.2
GGAUCUUCUCGAUUUAACAAAAAAGACAAAUCUGCCACAAAGCUUGAGAGCAUCUUCGGAUGCAGAGGCGGCAACCUUCGGUGGCGCGAUAGCGCCAAAGUUCUCAACUAUGACACGCAAAACGCGUGCUCCGUUGAAUGGAGUUUAUCAUG | ≤ -4.2
GGAUCUUCUCGAUCUAACAAAAAAGACAAAUCUGCCACAAAGCUUGAGAGGAUCUUCGGAUGCAGAGGCGGCAGCCUUCGGUAGCGCGAUAGCGCCAACGUUCUCAACUAUGACACGCAAAACGCGUGCUCCGCUGAAUGGAGUUUAUCAUG | -3.62
GGAUCUUCUCGAUCUAACAAAAAAGACAAAUCUGCCACAAAGCUUGAGAGCAUCUUCGUAUGCGGAGGCGGCAGCCUUCGGUGGCGCGGUAGCGCCAACGUUCUCACCUAUGACACGCAAAACGCGUGCUCCGUUGAAUGGAGUUUAUCAUG | ≤ -4.2
GGAUCUUCUCGAUCUAACAAAAAAGACAAAUCUGCCACAAAGCUUGAGAGCAUCUACGGAUGCAGAGGCGGCAGCCUUCGGGGGCGGGAUCGCGCCAACGUUCUCAACUAUGACACGCAAAACGCGUGCUCCGUUGAAUGGAGUUUAUCAUG | ≤ -4.2
GGAUCUUCUCGAUCUAACAAAAAAGACAAAUCUGCCACAAAGCGUGAGAGCAUCUUCGGAUGCAGAGGCGGCAGCCUUCGGUGGCGCGAUAGCGCCAACGUUCUCAACUAUGACACGCAUAACGCGUGCUCCGUUGAAUGGAGUUUAUCAUG | ≤ -4.2
